{
  "source": "patent US7732133B2",
  "about": "“Screening methods for biologically active ligands” (Chugai Seiyaku Kabushiki Kaisha, priority 2000, dated 2010)",
  "key": {"[1]": {"molecular_target": "T1, chimeric LIF receptor (human LIF receptor and human gp130 / mouse G-CSF receptor) in Ba/F3 cell line LIG (Homo sapiens, UniProt P40189+P42702)", "T1 construct": "from the 1st to the 833rd amino acid residues; expressed in transfected cells; host or cells: mouse Ba/F3 cells co-transfected with pCV-cLIFR and pCV-cgp130, clone LIG#47 = LIG", "T1 sequence (P42702 45-833)": "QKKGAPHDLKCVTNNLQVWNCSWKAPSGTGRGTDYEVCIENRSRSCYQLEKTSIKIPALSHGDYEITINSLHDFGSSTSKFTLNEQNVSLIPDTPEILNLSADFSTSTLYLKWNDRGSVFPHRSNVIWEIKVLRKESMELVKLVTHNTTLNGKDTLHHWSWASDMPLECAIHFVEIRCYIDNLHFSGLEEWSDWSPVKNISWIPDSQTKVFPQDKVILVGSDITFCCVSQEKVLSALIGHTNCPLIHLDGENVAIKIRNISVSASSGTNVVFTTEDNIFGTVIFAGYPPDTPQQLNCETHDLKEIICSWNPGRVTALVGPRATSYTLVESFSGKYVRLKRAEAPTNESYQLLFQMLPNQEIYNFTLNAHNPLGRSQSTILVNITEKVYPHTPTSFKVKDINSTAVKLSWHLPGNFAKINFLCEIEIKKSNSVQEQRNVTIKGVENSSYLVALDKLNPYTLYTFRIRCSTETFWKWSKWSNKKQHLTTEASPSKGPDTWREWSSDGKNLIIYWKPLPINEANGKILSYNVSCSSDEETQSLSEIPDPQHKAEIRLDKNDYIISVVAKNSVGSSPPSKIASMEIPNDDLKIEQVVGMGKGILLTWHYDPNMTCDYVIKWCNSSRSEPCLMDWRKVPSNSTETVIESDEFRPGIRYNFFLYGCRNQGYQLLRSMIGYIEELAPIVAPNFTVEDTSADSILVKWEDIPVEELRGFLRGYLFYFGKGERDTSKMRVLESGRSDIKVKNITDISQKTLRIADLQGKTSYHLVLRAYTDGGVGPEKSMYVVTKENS", "T1 sequence (P40189 23-619)": "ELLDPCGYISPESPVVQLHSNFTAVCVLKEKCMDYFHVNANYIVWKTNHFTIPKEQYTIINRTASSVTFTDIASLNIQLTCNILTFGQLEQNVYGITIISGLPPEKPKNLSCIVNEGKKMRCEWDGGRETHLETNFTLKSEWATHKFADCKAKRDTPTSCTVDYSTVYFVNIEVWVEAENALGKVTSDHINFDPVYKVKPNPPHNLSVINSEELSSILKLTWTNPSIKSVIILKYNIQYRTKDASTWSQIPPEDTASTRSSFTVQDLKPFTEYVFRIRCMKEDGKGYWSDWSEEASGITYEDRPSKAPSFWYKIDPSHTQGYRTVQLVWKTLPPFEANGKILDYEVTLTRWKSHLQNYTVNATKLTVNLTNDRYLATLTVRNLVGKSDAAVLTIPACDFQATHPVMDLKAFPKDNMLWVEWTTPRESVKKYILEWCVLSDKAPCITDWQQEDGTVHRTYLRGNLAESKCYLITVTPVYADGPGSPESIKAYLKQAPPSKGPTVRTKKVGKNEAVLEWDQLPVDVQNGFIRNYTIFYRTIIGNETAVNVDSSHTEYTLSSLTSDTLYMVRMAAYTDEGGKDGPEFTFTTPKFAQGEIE", "T1 sequence (P40223 627-837 partner limits assumed)": "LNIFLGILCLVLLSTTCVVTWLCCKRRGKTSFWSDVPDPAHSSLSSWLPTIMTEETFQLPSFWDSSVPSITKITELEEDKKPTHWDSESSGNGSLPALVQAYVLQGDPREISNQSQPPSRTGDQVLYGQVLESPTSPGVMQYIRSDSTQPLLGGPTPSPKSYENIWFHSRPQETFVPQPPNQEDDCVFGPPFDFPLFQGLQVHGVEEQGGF", "experiment": "Growth response of chimeric LIF receptor-expressing Ba/F3 cell line LIG (WST-8)", "type": "cell-based", "conditions": "72 hours culture, WST-8 absorbance", "from_the_text": "Chimeric receptor DNAs were constructed by linking cDNA fragments encoding human LIF receptor (from the 1st to the 833rd amino acid residues; Gearing, D P. et al. […] EMBO J., 10, 2839-2848) and human gp130 (from the 1st to the 619th amino acid residues; Hibi, M. et al. (1990) Cell, 63, 1149-1157) with the transmembrane and intracellular domains (from the 602nd to the 813th amino acid residues; Fukunaga, R. et al. (1990) Cell 61, 341-350) of mouse G-CSF receptor, respectively. These constructs were inserted downstream of the HEF1α promoter of the mammalian expression vector pCV to construct chimeric receptors expression vectors, pCV-cLIFR and pCV-cgp130, respectively. pCV-cLIFR and pCV-cgp130 were linearized with Pvu I (Takara Shuzo), respectively, extracted with phenol and chloroform, and purified by ethanol precipitation. […]\n(§1) The cells were washed twice with Media A, and were suspended in Media A to give a cell density of 5×10^4 cells/mL. […] After the culture, 10 μL/well WST-8 reagent (Cell Count Reagent SF; Nacalai Tesque) was added, and pre-reaction absorbance at a measurement wavelength of 450 nm and a control wavelength of 655 nm was measured using microplate reader (Model 3550, Bio Rad). The plate was incubated for two hours in a CO2 incubator (CO2 concentration, 5%), and post-reaction absorbance was measured as above. […]"}, "[2]": {"test_system": "mixed culture of cell lines GFG, EPG, TPG and parental Ba/F3", "experiment": "Cytokine responses in mixed and individual cell cultures (Example 2)", "type": "cell-based, mouse", "conditions": "mixed culture of four cell lines (each 4×10^3 cells/well), similar in individual cultures, 72 hours, WST-8; listed as hEPO", "procedure": "Mixed culture of the cell lines GFG, EPG, and TPG, which express human G-CSF, EPO, and TPO chimeric receptors, respectively, and their parental cell line Ba/F3 was conducted and their response to various cytokines was examined.\nThe cells were washed twice with RPMI1640 media containing 2% fetal bovine serum, and then were suspended in RPMI1640 containing 10% fetal bovine serum. The four cell lines were mixed by adjusting each of the cell lines to 4×10^4 cells/mL (16×10^4 cells/mL in total) for the mixed culture, and, for individual cultures, cells were prepared at 4×10^4 cells/mL. 100 μL each of the cells were independently seeded on a 96-well microtiter plate (flat bottom, Falcon). After adding 100 μL/well each of appropriately diluted cytokines, the cultures were cultured for 72 hours in a CO2 incubator (5% CO2 concentration). After the culture, 10 μL/well WST-8 reagent (Cell Count Reagent SF; Nacalai Tesque) was added, and pre-reaction absorbance at a measurement wavelength of 450 nm and a control wavelength of 655 nm was measured using a microplate reader (Model 3550, Bio Rad). The plate was incubated for two hours in a CO2 incubator (CO2 concentration, 5%), and post-reaction absorbance was measured as above. Data were graphed out taking the cytokine concentrations on the horizontal axis and the amount of changes in absorbance after 2-hour incubation on the vertical axis (FIGS. 18, 19, and 20)."}, "[3]": {"experiment": "Titer of human EPO and G-CSF prepared from recombinant CHO cells"}, "[4]": {"molecular_target": "T2, chimeric leptin receptor (human leptin receptor extracellular domain / mouse G-CSF receptor) in Ba/F3 cell line LPG (Homo sapiens, UniProt P48357)", "T2 construct": "from the 1st to the 839th amino acid residues; expressed in transfected cells; host or cells: mouse Ba/F3 cells, clone LPG#51 = LPG", "T2 sequence (P48357 22-839)": "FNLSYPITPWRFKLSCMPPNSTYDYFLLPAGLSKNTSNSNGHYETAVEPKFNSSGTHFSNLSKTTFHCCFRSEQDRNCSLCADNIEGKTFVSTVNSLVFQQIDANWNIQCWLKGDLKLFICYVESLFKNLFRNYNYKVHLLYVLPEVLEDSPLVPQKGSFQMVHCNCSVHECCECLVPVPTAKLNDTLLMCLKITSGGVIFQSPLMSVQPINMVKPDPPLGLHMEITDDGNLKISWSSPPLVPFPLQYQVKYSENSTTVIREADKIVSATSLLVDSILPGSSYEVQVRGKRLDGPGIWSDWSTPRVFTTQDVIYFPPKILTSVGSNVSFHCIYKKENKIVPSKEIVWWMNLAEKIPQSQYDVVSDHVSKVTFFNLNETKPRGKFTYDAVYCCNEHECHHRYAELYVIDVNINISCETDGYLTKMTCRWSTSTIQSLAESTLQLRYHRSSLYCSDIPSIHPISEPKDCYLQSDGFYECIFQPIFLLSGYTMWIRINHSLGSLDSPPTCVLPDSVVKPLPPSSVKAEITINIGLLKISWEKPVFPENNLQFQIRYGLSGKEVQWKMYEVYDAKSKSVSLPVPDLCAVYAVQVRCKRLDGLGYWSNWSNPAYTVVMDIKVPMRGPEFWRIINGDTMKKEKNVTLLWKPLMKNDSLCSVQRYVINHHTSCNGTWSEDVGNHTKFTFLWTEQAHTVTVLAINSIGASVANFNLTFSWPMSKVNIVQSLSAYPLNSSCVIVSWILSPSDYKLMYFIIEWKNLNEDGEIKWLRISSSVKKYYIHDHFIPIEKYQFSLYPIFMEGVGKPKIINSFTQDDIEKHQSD", "experiment": "Growth response of chimeric leptin receptor-expressing Ba/F3 cell line LPG (WST-8)", "type": "cell-based", "conditions": "72 hours culture, WST-8 absorbance", "from_the_text": "A chimeric receptor cDNA was constructed by linking cDNA fragments encoding the extracellular domain (from the 1st to the 839th amino acid residues; Tartaglia, L A. et al. (1995) Cell, 83, 1263-1271) of human leptin receptor, and the transmembrane and intracellular domains (from the 602nd to the 813th amino acid residues; Fukunaga, R. et al. (1990) Cell 61, 341-350) of mouse G-CSF receptor. This cDNA was inserted downstream of the HEF1α promoter of the mammalian expression vector pCV to construct chimeric receptor expression vector pCV-cLepR. pCV-cLepR was linearized with Pvu I (Takara Shuzo), extracted with phenol and chloroform, and purified by ethanol precipitation. […]\nas §1"}},
  "data": [
    {"substance": "human LIF: human leukemia inhibitory factor (Genzyme)", "values": [
      {"measurement": "concentration at which an evident growth reaction was observed", "setting": "[1]", "value": "≥ 0.4", "unit": "ng/mL"}
    ]},
    {"substance": "erythropoietin [human EPO]", "values": [
      {"measurement": "concentration where the response was observed to start", "setting": "[2]", "value": 2, "unit": "pg/mL"},
      {"measurement": "titer", "setting": "[3]", "value": "270,000 IU/mg"}
    ]},
    {"substance": "human leptin: human leptin (Genzyme)", "values": [
      {"measurement": "concentration at which an evident growth reaction was observed", "setting": "[4]", "value": "≥ 0.2", "unit": "ng/mL"}
    ]}
  ]
}
